The target in experiment [1] is human PD-L1 on HCC827 cells (human) (UniProt Q9NZQ7). Put plainly: FACS on HCC827 cells.
Experiment [2] concerns the target PD-L1-his (QPP09) (human) (UniProt Q9NZQ7). In words: ELISA, PD-L1 captured by coated anti-HIS antibody. (In general: In an ELISA, binding on a coated surface is turned into a signal by an enzyme label.)

Sequence of PD-L1-his (QPP09) (human) (Q9NZQ7 19-239 limits assumed): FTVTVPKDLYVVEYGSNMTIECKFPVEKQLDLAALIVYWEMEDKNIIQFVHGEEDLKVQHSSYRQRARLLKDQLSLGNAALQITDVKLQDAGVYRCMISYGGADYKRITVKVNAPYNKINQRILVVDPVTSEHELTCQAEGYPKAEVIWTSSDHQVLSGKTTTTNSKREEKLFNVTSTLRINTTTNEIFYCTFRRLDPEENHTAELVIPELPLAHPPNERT
Sequence of human PD-L1 on HCC827 cells (human) (Q9NZQ7 19-290): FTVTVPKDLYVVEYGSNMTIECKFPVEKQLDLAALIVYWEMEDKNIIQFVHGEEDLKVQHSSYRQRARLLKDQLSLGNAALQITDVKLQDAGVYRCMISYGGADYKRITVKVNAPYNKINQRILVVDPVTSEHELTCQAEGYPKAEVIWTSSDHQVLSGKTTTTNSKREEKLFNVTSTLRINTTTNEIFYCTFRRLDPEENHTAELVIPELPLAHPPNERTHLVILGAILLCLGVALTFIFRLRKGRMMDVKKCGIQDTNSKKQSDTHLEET

Turning to Tecentriq (antibody), the half-maximal effective concentration (EC50) (in general, the concentration that produces a half-maximal response) is 0.109 nM in experiment [1] and 0.0919 nM in experiment [2].

These data come from patent publication US20250326840A1.
